Experiments:
[1] = molecular target: T1, human amyloid beta fragment 1-10 (human, UniProt P05067 672-681); assay: BIAcore, single concentration of peptide
T1 construct: range 1-10; also called human Aβ 1-10
T1 peptide (looked up): DAEFRHDSGY
Description: (§1) All dilutions were made with HEPES buffered saline containing Tween 20. A single concentration of a variety of fragments of human Aβ or mouse Aβ 1-40 (BioSource International) was used.

[2] = molecular target: T2, human amyloid beta fragment 1-20 (human, UniProt P05067 672-691); assay: BIAcore, single concentration of peptide
T2 construct: range 1-20; also called human Aβ 1-20
T2 peptide (looked up): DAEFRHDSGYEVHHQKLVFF
Description: as §1

human Aβ fragment 10-20 = molecular target: T3, human Aβ fragment 10-20 (human, UniProt P05067 681-691); assay: BIAcore, single concentration of peptide
T3 construct: range 10-20; also called human amyloid beta 10-20
T3 peptide (looked up): YEVHHQKLVFF
Description: as §1

human Aβ fragment 16-25 = molecular target: T4, human Aβ fragment 16-25 (human, UniProt P05067 687-696); assay: BIAcore, single concentration of peptide
T4 construct: range 16-25; also called human amyloid beta 16-25
T4 peptide (looked up): KLVFFAEDVG
Description: as §1

mouse Aβ 1-40 = molecular target: T5, mouse Aβ 1-40 (mouse, UniProt P12023 672-711); assay: BIAcore, single concentration of peptide
T5 construct: range 1-40; The range counts on the Aβ peptide, not on the mouse APP precursor
T5 peptide (looked up): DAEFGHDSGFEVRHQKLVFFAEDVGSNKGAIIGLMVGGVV
Description: as §1

Amyloid-beta 1-40 = molecular target: T6, Amyloid-beta 1-40 (UniProt P05067 672-711); assay: BIAcore 2000 SPR; antibody captured by anti-human Ig, Aβ flowed over; Aβ 1-40; monophasic
T6 construct: range 1-40; The range 1-40 counts on the Aβ peptide, not on the APP precursor; also called Aβ 1-40
Protocol: (§2) Antibody affinity (KD=Kd/Ka) was determined using a BIAcore biosensor 2000 and data analyzed with BIAevaluation (v. 3.1) software. A capture antibody (rabbit anti-mouse Ig or anti-human Ig) was coupled via free amine groups to carboxyl groups on flow cell 2 of a biosensor chip (CM5) using N-ethyl-N-dimethylaminopropyl carbodiimide and N-hydroxysuccinimide (EDC/NHS). A non-specific rabbit IgG was coupled to flow cell 1 as a background control. Monoclonal antibodies were captured to yield 300 resonance units (RU). […] To regenerate the chip, bound anti-Aβ antibody was eluted from the chip using a wash with glycine-HCl (pH 2). A control injection containing no amyloid-beta served as a control for baseline subtraction.

β-amyloid peptide (1-42) [3] = molecular target: T7, β-amyloid peptide (1-42) (UniProt P05067 672-713); assay: BIAcore 2000 SPR; antibody captured, Aβ flowed over; biphasic, first affinity; Aβ 1-42; biphasic, high-affinity component
T7 construct: range 1-42; The range 1-42 counts on the Aβ peptide, not on the APP precursor; also called Aβ 1-42; Amyloid-beta 1-42
Protocol: as §2

β-amyloid peptide (1-42) [4] = molecular target: T7, β-amyloid peptide (1-42); assay: BIAcore 2000 SPR; antibody captured, Aβ flowed over; biphasic, second affinity; Aβ 1-42; biphasic, low-affinity component
Protocol: as §2

β-amyloid peptide (1-42) [5] = molecular target: T7, β-amyloid peptide (1-42); assay: competitive ELISA on coated Aβ 1-42 against biotinylated Mu10D5; mean of three experiments (SD 0.6 µg/mL), second set; second set of three experiments (SD 0.6 µg/mL)
Protocol: (§3) After washing the wells with phosphate buffered saline (PBS) containing 0.1% Tween 20 (Washing Buffer) using an ELISA plate washer, the wells were blocked by adding 300 μL of SuperBlock reagent (Pierce) per well. After 30 minutes of blocking, the wells were washed with Washing Buffer and excess liquid was removed.
(§4) As a background control, 100 μl of ELISA Buffer was added. The ELISA plate was incubated at room temperature for 90 min. […] The plate was incubated at room temperature for 30 min and washed with Washing Buffer. For color development, 100 μl/well of ABTS Peroxidase Substrate (Kirkegaard & Perry Laboratories) was added. Color development was stopped by adding 100 μl/well of 2% oxalic acid. […] The absorbances were plotted against the log of the competitor concentration, curves were fit to the data points (using Prism) and the IC50 was determined for each antibody using methods well-known in the art.

β-amyloid peptide (1-42) [6] = molecular target: T7, β-amyloid peptide (1-42); assay: competitive ELISA on coated Aβ 1-42 against biotinylated Mu10D5; mean of three experiments (SD 11.8 µg/mL), first set; first set of three experiments (SD 11.8 µg/mL)
Protocol: as §3, §4

- binding result [1]: binds
- binding result [2]: binds
- binding result (human Aβ fragment 10-20): no binding
- binding result (human Aβ fragment 16-25): no binding
- binding result (mouse Aβ 1-40): no binding
- Kd (Amyloid-beta 1-40): 209 nM
- Kd (β-amyloid peptide (1-42) [3]): 0.19 nM
- Kd (β-amyloid peptide (1-42) [4]): 1020 nM
- IC50 (β-amyloid peptide (1-42) [5]): 16 µg/mL
- IC50 (β-amyloid peptide (1-42) [6]): 49.1 µg/mL
B1: humanized 10D5 antibody (antibody, human IgG1, kappa, V domains shown)
VH: QVTLKESGPVLVKPTETLTLTCTFSGFSLSTSGMGVSWIRQPPGKALEWLAHIYWDDDKRYNPSLKSRLTISKDTSKSQVVLTMTNMDPVDTATYYCVRRPITPVLVDAMDYWGQGTLVTVSS
VL: DVVMTQSPLSLPVTLGQPASISCRSSQNIIHSNGNTYLEWYLQKPGQSPRLLIYKVSNRFSGVPDRFSGSGSGTDFTLKISRVEAEDVGVYYCFQGSHVPLTFGGGTKVEIKR
notes: also called Hu10D5

Reference: patent US20050142131A1 (Eli Lilly, published 2005)
